Here are results for four molecules from publication PMC4974639, “Crystal structures of APOBEC3G N-domain alone and its complex with DNA”.

For data set [1], the target named is T1, rA3G-CD1 (loop-8 mutant) (Macaca mulatta (rhesus macaque), UniProt M1GSK9 1-138+=AEAG+147-196, internal_change). The data set is described as follows: EMSA; ITC: 100 mM NaCl, 50 mM HEPES pH 7.5, 25 C; EMSA: 60 mM HEPES pH 7.5, 100 mM NaCl, on ice 10 min, native PAGE. To be noted: protein: recombinant, tags: GST tag removed with PreScission (pGEX-6P-1), chain copies: 2.
T1 sequence (M1GSK9 entry or part of it | mutant): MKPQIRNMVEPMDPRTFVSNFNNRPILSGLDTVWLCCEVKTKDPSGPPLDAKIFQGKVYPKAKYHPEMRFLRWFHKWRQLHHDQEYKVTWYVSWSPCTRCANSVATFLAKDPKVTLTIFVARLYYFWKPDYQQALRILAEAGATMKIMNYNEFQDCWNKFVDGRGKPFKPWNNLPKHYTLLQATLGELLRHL

Data set [2] has as its target rA3G-CD1 Y124A (Macaca mulatta (rhesus macaque), UniProt M1GSK9 1-138+=AEAG+147-196, Y124A;internal_change). In words: ITC; ITC: 100 mM NaCl, 50 mM HEPES pH 7.5, 25 C; EMSA: 60 mM HEPES pH 7.5, 100 mM NaCl, on ice 10 min, native PAGE. To be noted: protein: recombinant; tags: GST tag removed with PreScission (pGEX-6P-1).
The target of data set [3] is rA3G-CD1 FWKL mutant (Macaca mulatta (rhesus macaque), UniProt M1GSK9 1-138+=AEAG+147-196, F126Y;W127S;K180S;L184S;internal_change). The description is as above. To be noted: protein: recombinant; tags: GST tag removed with PreScission (pGEX-6P-1).
Chain of rA3G-CD1 FWKL mutant (M1GSK9 entry or part of it F126Y;W127S;K180S;L184S/| mutant): as the sequence (M1GSK9 entry or part of it | mutant) above, with F126Y, W127S, K176S, L180S counted along it
For data set [4], the target named is T1, rA3G-CD1 (loop-8 mutant). The data set is described as follows: ITC; n=1.47; ITC: 100 mM NaCl, 50 mM HEPES pH 7.5, 25 C; EMSA: 60 mM HEPES pH 7.5, 100 mM NaCl, on ice 10 min, native PAGE. The settings on record: protein: recombinant; tags: GST tag removed with PreScission (pGEX-6P-1); chain copies: 2.
Data set [5] has as its target T1, rA3G-CD1 (loop-8 mutant). In words: ITC; n=0.83; ITC: 100 mM NaCl, 50 mM HEPES pH 7.5, 25 C; EMSA: 60 mM HEPES pH 7.5, 100 mM NaCl, on ice 10 min, native PAGE. To be noted: protein: recombinant; tags: GST tag removed with PreScission (pGEX-6P-1); chain copies: 2.

Chain of rA3G-CD1 Y124A (M1GSK9 entry or part of it Y124A/| Y124A Y124A): as the sequence (M1GSK9 entry or part of it | mutant) above, with Y124A counted along it

AUUAUUAUUAUUUAUCCCUAUUUAUAUUUAUUGUUAUUGUUAUUGUUAUA (ssRNA) [50 nt RNA]: the binding result in data set [1] (label: 5'-FAM) is listed as “binds”.
For TTTTTTTTTT (ssDNA) [10 nt poly-dT ssDNA], the binding result in data set [2] and in data set [3] was “no binding” throughout. Further, the Kd in data set [4] is 1570 ± 310 nM.
UAUUCAUUAU (ssRNA) [10 nt RNA]: the binding result in data set [2] and in data set [3] was “no binding” in each case. Moreover, the Kd in data set [5] was found to be 1490 ± 180 nM.
In the case of ATTATTATTATTTATCCCTATTTATATTTATTGTTATTGTTATTGTTATA (ssDNA) [50 nt ssDNA], in data set [1] (label: 5'-FAM (EMSA)), the binding result was “binds”.
